Experimental data as given in the MegaScale stability set (Tsuboyama et al. 2023).

B1: EHEE_rd2_1257 (parent)
chain: EEERTFTNEEEARKAKKEAEKRGLRVTVTKDGTTWRVRIG

Variants of: B1
Assay: folding stability dG (cDNA display proteolysis); higher = more stable
Settings: PBS, room temperature

Variant | folding stability dG [kcal/mol]
EEERTFTNEEEARKAKKEAEKRGLRVTVMKDGTTWRVRIG | 1.83
EEERTFTNEEEARKAKKEAEKRGLFVTVTKDGTTWRVRIG | 2.07
EEERTFTNEEEARKAKKEAEKRGLMVTVTKDGTTWRVRIG | 1.81
EEERTFTNEEEARKAKKEAEKRGLHVTVTKDGTTWRVRIG | 2.15
EEERTFTNEEEARKAKKEAEKRGLLVTVTKDGTTWRVRIG | 1.87
EEERTFTNEEEARKAKKEAEKRGLDVTVTKDGTTWRVRIG | 1.23
EEERTFTNEEEARKAKKEAEKRGLAVTVTKDGTTWRVRIG | 1.62
EEERTFTNEEEARKAKKEADKRGLRVTVTKDGTTWRVRIG | 0.837
EEERTFTNEEEARKAKKEAIKRGLRVTVTKDGTTWRVRIG | 1.63
EEERTFTNEEEARKAKKEAEKDGLRVTVTKDGTTWRVRIG | 1.09
EEERTFTNEEEARKAKKEAEKNGLRVTVTKDGTTWRVRIG | 1.72
EEERTFTNEEEARKAKKEAEKAGLRVTVTKDGTTWRVRIG | 1.91
EEERTFTNEEEARKAKKEAEKWGLRVTVTKDGTTWRVRIG | 1.72
EEERTFTNEEEARKAKKEAEKRGLRVDVTKDGTTWRVRIG | 1.05
EEERTFTNEEEARKAKKEAEKRGLRVIVTKDGTTWRVRIG | 1.95
EEERTFTNEEEARKAKKEAEKRGLRVNVTKDGTTWRVRIG | 1.15
EEERTFTNEEEARKAKKEAEKRSLRVTVTKDGTTWRVRIG | 0.399
EEERTFTNEEEARKAKKEAEKRKLRVTVTKDGTTWRVRIG | 0.384
EEERTFTNEEEARKAKKEAEKRWLRVTVTKDGTTWRVRIG | 0.38
EEERTFTNEEEARKAKKEAEKRGLRVTVTKDGTTWRPRIG | 0.556
EEERTFTNEEEARKAKKEAEKRGLRVTVTKDGTTWRMRIG | 1.61

Variant | folding stability dG [kcal/mol]
EEERTFTNEEEARKAKKEAEKRGLRVTVTKDGTTWRVGIG | 0.853
EEERTFTNEEEARKAKKEAEKRGLRVTVTKDGTTWRVYIG | 2.17
EEERTFTNEEEARKAKKEAEKRGLRVTVTKDGTTWRVQIG | 1.74
EEERTFTNEEEARKAKKEAEKRGLRVTVTKDGTTWRVKIG | 2.08
EEERTFTNEEEARKAKFEAEKRGLRVTVTKDGTTWRVRIG | 2.36
EEERTFTNEEEARKAKMEAEKRGLRVTVTKDGTTWRVRIG | 2.48
EEERTFTNEEEARKAKDEAEKRGLRVTVTKDGTTWRVRIG | 2.44
EEERTFTNEEEARKAKREAEKRGLRVTVTKDGTTWRVRIG | 2.3
EEERTFTNEEEARKAKEEAEKRGLRVTVTKDGTTWRVRIG | 2.7
EEERLFTNEEEARKAKKEAEKRGLRVTVTKDGTTWRVRIG | 2.11
DEERTFTNEEEARKAKKEAEKRGLRVTVTKDGTTWRVRIG | 2.1
YEERTFTNEEEARKAKKEAEKRGLRVTVTKDGTTWRVRIG | 3.06
EEERTFTNEEEARKAKKEAEKRGLRVTVTTDGTTWRVRIG | 2.57
EEERTFTNEEEARKAKKEAEKRGLRVTVTYDGTTWRVRIG | 3.22
EEERTFTNEEEARKAKKEAEKRGLRVTMTKDGTTWRVRIG | 2.37
EEERTFTNEEEARKAKKEAEKRGLRVTFTKDGTTWRVRIG | 1.45
EEERTFTNEEEARKAKKEAEKRGLRVTATKDGTTWRVRIG | -0.179
EEERTFTNEEEARKAKKEAEKRGLRVTQTKDGTTWRVRIG | -0.917
EEERTFTNEEECRKAKKEAEKRGLRVTVTKDGTTWRVRIG | 2
EEERTFTNEEESRKAKKEAEKRGLRVTVTKDGTTWRVRIG | 0.218
EEERTFTNEEEYRKAKKEAEKRGLRVTVTKDGTTWRVRIG | 1.34

Variant | folding stability dG [kcal/mol]
EEERTFTNEEEFRKAKKEAEKRGLRVTVTKDGTTWRVRIG | 1.54
EEERTFTNEEEARKAKKEAEKRGLRVTVTKDGTTWCVRIG | 1.91
EEERTFTNEEEARKAKKEAEKRGLRVTVTKDGTTWFVRIG | 2.23
EEERTFTNEEEARKAKKEAEKRGLRVTVTKDGTTWTVRIG | 2.15
EEERTFTNEEEARKAKKEAEKRGLRVTVTKDGTTWVVRIG | 2.78
EEERTFTNEEEARKAKKEAEKRGGRVTVTKDGTTWRVRIG | 0.057
EEERTFTNEEEARKAKKEAEKRGARVTVTKDGTTWRVRIG | 0.982
EEERTFTNEEEARKAKKEAEKRGERVTVTKDGTTWRVRIG | 0.879
EEERTFTNEEEARKAKKEAEKRGYRVTVTKDGTTWRVRIG | 2.08
EEERTFTNEEEARKAKKEAEKRGLRVTVTKDGNTWRVRIG | 2.63
EEERTFTNEEEARKAKKEAEKRGLRVTVTKDGTKWRVRIG | 1.97
EEERTFTNEEEARKAKKEAEKRGLRVTVTKDGTMWRVRIG | 2.37
EEERTFTNEEEARKAKKEAEKRGLRVTVTKDGTRWRVRIG | 1.87
EEERTFTNEEEARKAKKEAEKRGLRVTVTKDGTSWRVRIG | 1.82
EEERTFTNEEEARKAKKEAEKRGLRVTVTKDGTVWRVRIG | 2.62
EEERTFTNEEEARKAKKEAEKRGLRVTVTKMGTTWRVRIG | 1.74
EEERTFTNEEEARKAKKEAEKRGLRVTVTKFGTTWRVRIG | 1.69
EEERTFTNEEEARKAKKEAEKRGLRVTVTKHGTTWRVRIG | 1.78
EEERTFTNEEEARKAKKEAEKRGLRVTVTKDGTTIRVRIG | 1.3
EEERTFTNEEEARKAKKEAEKRGLRVTVTKDGTTDRVRIG | -0.409
EEERTFTNEEEARKAKKEAEKRGLRVTVTKDGTTSRVRIG | -0.143
